Measured values published in publication PMC4506739.

Biological target: importin α ΔIBB (NLS-recognition domain of importin α)
Assay: ITC

fold higher affinity than TPX2 NLS [fold] | stoichiometry N | Substance
9 | 1 | GM130 N74 S25D-GST (Cdk1 phospho-mimicking mutant) (from UniProt Q62839 1-74) (domain or fragment)
 | 1 | GST-TPX2 NLS wildtype (mouse TPX2 residues 302-322) (from UniProt A2APB8 302-322) (peptide)
